The EC50 is the concentration needed to bring the measured effect to its halfway point.

Residue numbers refer to the chain shown, from its start.

The record followed here is US20210317231A1 (BYONDIS B V, published 2021).

The chains are these.
T1: cynomolgus monkey 5T4 antigen (cynomolgus monkey, UniProt Q4R8Y9 35-420)
T1 construct: whole, on cells; also called cyno 5T4
T1 sequence (looked up): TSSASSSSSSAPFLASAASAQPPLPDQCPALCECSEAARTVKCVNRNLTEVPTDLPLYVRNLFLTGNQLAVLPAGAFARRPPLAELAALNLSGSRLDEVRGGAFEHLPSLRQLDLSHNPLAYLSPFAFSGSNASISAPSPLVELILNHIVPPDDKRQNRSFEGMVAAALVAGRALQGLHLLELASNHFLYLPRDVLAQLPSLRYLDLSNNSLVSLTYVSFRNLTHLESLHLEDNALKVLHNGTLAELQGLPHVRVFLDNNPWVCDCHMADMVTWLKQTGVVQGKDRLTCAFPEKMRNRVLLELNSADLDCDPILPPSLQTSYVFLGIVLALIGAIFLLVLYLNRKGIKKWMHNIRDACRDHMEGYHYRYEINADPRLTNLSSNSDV

T2: human 5T4 oncofoetal antigen (human, UniProt Q13641 32-420)
T2 construct: whole, on cells; also called hu 5T4; human 5T4 antigen
T2 sequence (looked up): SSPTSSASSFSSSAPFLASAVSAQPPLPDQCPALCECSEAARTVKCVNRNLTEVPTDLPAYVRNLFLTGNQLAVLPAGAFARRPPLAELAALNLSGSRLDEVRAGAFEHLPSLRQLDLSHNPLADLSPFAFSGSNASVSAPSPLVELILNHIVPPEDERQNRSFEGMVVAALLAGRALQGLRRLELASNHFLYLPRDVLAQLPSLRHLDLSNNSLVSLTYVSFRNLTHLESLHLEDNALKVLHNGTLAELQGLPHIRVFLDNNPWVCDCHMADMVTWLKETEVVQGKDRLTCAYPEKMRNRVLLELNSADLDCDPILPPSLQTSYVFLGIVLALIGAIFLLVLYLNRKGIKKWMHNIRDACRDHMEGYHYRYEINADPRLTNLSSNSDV

B1: humanized anti-5T4 antibody 833c with HC-41C mutation (antibody, human IgG1, kappa, V domains shown)
VH: EVQLEESGGGLVKPGGSLRLSCAASGIDLSHYVVGWVRQACGKGLEWVSIIYGSGRTYYANWAKGRFTISRDNSKNTLYLQMNSLRAEDTAVYYCARDASVSVYYWGYFDLWGRGTLVTVSS
VL: DIQMTQSPSTLSASVGDRVTITCQASQSIGSELAWYQQKPGKAPKLLIYRASTLESGVPSRFSGSGSGTEFTLTISSLQPDDFATYYCQQGYTYSEIDNAFGQGTKVEIKR
B2: humanized anti-5T4 antibody 833d with HC-41C mutation (antibody, human IgG1, kappa, V domains shown)
VH: QSLEESGGGLVQPGGSLRLSCAASGIDLSHYVVGWVRQACGKGLEWIGIIYGSGRTYYANWAKGRFTISRHNSKNTLYLQMNSLRAEDTAVYYCARDASVSVYYWGYFDLWGQGTLVTVSS
VL: B1 VL with T10S, K42Q, L73F, D81E, F83L, V107L
B3: humanized anti-5T4 antibody 825b with HC-41C mutation (antibody, human IgG1, kappa, V domains shown)
VH: EVQLEESGGGLVKPGGSLRLSCAASGIDLSSYGMGWVRQACGKGLEWVSIISRNSVTYYATWAKGRFTISRDNSKNTLYLQMNSLRAEDTAVYYCARRATYSGALGYFDIWGRGTLVTVSS
VL: EIVMTQSPSSLSASVGDRVTITCQASENIYSTLAWYQQKPGKAPKLLIYDAFDLASGVPSRFSGSGSGTDYTLTISSLQPEDFATYYCQQGYSGTNVDNAFGQGTKLEIKR
B4: humanized anti-5T4 antibody 825a with HC-41C mutation (antibody, human IgG1, kappa, V domains shown)
VH: B3 VH with E5V, G10D, V12A, K13Q, A24V, L78V, N83T, V92L, Y94F, R113Q
VL: B3 VL
B5: humanized anti-5T4 antibody 825c with HC-41C mutation (antibody, human IgG1, kappa, V domains shown)
VH: B3 VH
VL: B3 VL with E1G, I2Y, V3D, L11V, S63K, D70E, Q103G, L107V

In one experiment the target is T1, cynomolgus monkey 5T4 antigen. The experiment in a line: flow cytometry, CHOZN cells expressing cyno 5T4. A general note: Flow cytometry measures light scatter and fluorescence of single cells or particles in a stream.
B1: the 50% effective concentration (EC50) is 0.17 µg/mL.
As for B2, the concentration giving a half-maximal response (EC50) is 0.16 µg/mL.
On the same count and under the same terms, the same measure for B3: 0.46 µg/mL; for B4: 0.53 µg/mL.
As for B5, the EC50 was 0.42 µg/mL.

In another experiment the target is T2, human 5T4 oncofoetal antigen. Nature of the experiment: flow cytometry, CHOZN cells expressing hu 5T4.
B1 returned an EC50 of 0.18 µg/mL.
B2 had an EC50 of 0.18 µg/mL.
B3: a half-maximal effect (EC50) was put at 0.16 µg/mL.
On the same count and under the same terms, the same measure for B4: 0.15 µg/mL; for B5: 0.21 µg/mL.
